# From PMC9207415
# Experiment: SEC; TSK gel G3000SWXL, 100 mmol/L sodium phosphate with 100 mmol/L Na2SO4 (pH 6.8), isocratic, 0.4 ml/min, 25°C, UV at 280 nm; area percentages of monomer, oligomeric and truncated forms of the antibody solution (5 g/L in 10 mmol/L potassium phosphate pH 7.0)
substance,measurement,value
"NMIJ RM 6208a, AIST-MAB (humanized IgG1κ monoclonal antibody reference material)",area percentage of the monomer peak,(93.7 ± 0.2) %
